Measured values published in the nanobody polyreactivity screen of Harvey et al. (2022).

Assay: yeast display, Sf9 membrane polyspecificity reagent, FACS + sequencing; frameworks hold sequencing errors
In short: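 Galactose-induced (36–48 hours) yeast carrying a synthetic nanobody display library were exposed to 10% biotinylated, detergent-solubilized Sf9 membrane reagent at 4 °C for 1 hour. FACS followed streptavidin microbead enrichment, using low and high (top ~1%) gates for expression (anti-HA) and reagent binding (streptavidin). Colony PCR, MiSeq 2 × 250 sequencing and CDR-length filtering followed. Labels for polyreactivity reflect the gate of origin.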
In the case of “QVQLVESGGGLVQAGGSLRLSCAASGLILNYYTMGSYRQAPGKERELVATISSSTGSTYYADSVKGRFTISRDNAKNTVYLQMNSLKPEDTAVYYCAADHWSYWQIYEYWGQGTQVTVSS”, the “polyreactivity (PSR sort gate)” value is reported as “low polyreactivity”.
For “QVQLVESGGGLVQAGGSLRLSCAASGLILVGNTMGWYRQAPGKERELVATITSGGRTYYADSVKGRFTISRDNAKNTVYLQMNSLKPEDTAVYYCAKRAFSYVGGQQDRKENYYYWGQGTQVTVSS”, the “polyreactivity (PSR sort gate)” value was “high polyreactivity”.
For “QVQLVESGGGLVQAGGSLRLSCAASGLILVPNTMGWYRQAPGKARELVAAISYSGGGTYYADSVKGRFTISRDNAKNTVYLQMNSLKPEDTAVYYCAAYDKRESAPYGYWGQGTQVTVSS”, the “polyreactivity (PSR sort gate)” value was “low polyreactivity”.
For “QVQLVESGGGLVQAGGSLRLSCAASGLILYYYTMGWYRQAPGKERELVAAINSGGNTYYADSVKGRFTISRDNAKNTVYLQMNSLKPEDTAVYYCNAYRVRYKRSYDYWGQGTQVTVSS”, the “polyreactivity (PSR sort gate)” value was “high polyreactivity”.
With “QVQLVESGGGLVQAGGSLRLSCAASGLIRDGKVMGWYIQAPGKERELVAAINTSGGSTYYADSVKGRFTISRDNAKNTVYLQMNSLKPEDTAVYYCAARYPSDYDYWGQGTQVTVSS” the “polyreactivity (PSR sort gate)” value was “low polyreactivity”.
In the case of “QVQLVESGGGLVQAGGSLRLSCAASGLIVGGYTMGWYRQAPGKERDLVAAIDSADSTYYADSVKGRFTISRDNAKNTVYLQMNSLKPEDTAVYYCATYWFYSGPAFSLRETGGVNYWGQGTQVTVSS”, the “polyreactivity (PSR sort gate)” value is reported as “low polyreactivity”.
In the case of “QVQLVESGGGLVQAGGSLRLSCAASGLIYVTNAMGCYRQAPGKERELVAAITSVGSTNYADSVKGRFTISRDNAKNTVYLQMNSLKPEDTAVYYCAAGVIADQSIGPTWSGSEGDYWGQGTQVTVSS”, the “polyreactivity (PSR sort gate)” value is reported as “low polyreactivity”.
With “QVQLVESGGGLVQAGGSLRLSCAASGLNFDKNAMGWYRQAPGNERELLAAITRSSGTTYYADSVKGRFTISRDNAKNTVYLQMNSLKPEDTAVYYCAARFIWGYWGVGYYSWGQGTQVTVSS” the “polyreactivity (PSR sort gate)” value was “low polyreactivity”.
For “QVQLVESGGGLVQAGGSLRLSCAASGLNFGSNAMGWYRQAPGKERELVAAITWSGGSTYYADSVKGRFTISRDNAKNTVYLQMNSLKPEDTAVYYCAAKRWYRYYWGQGTQVTVSS”, the “polyreactivity (PSR sort gate)” value was “high polyreactivity”.
For “QVQLVESGGGLVQAGGSLRLSCAASGLNFSEYAMGWYRQAPGKERELVAAIRSDGGSTYYADSVKGRFTISRDNAKNTVYLQMNSLKPEVTAVYYCNAPYRRSAKFRRYVYDYWGQGTQVTVSS”, the “polyreactivity (PSR sort gate)” value was “high polyreactivity”.
For “QVQLVESGGGLVQAGGSLRLSCAASGLNFYRYPMGWNRQAPGKERELVAAITRNGGSTYYADSVKGRFTISRDNANNTVYLQMNSLKPEDIAVYYCAADLYSAVYFSRWSDYWGQGTQVTVSS”, the “polyreactivity (PSR sort gate)” value was “high polyreactivity”.
With “QVQLVESGGGLVQAGGSLRLSCAASGLNFYYYAMGWYRQAPGKERELVATISSRGGSTNYADSVKGRFTISRDNAKNTVYLQMNSLKPEDTAVYYCAADRRARVWTYRSYDYWGQGTQVTVSS” the “polyreactivity (PSR sort gate)” value was “high polyreactivity”.
In the case of “QVQLVESGGGLVQAGGSLRLSCAASGLNIRYYAMGWYRQAPGKERELVAAISYNGGSTYYADSVKGRFTISRDNAKNTVYLQMNSLKPEDTAVYYCAARLYGRYGYWGQGTQVTVSS”, the “polyreactivity (PSR sort gate)” value is reported as “high polyreactivity”.
For “QVQLVESGGGLVQAGGSLRLSCAASGLSLGVYTLGWYRQAPGKEREFVASINYGGGSTYYADSVKGRFTISRDNAKNTVYLQMNSLKPEDTAVYYCNARSRWGGTRLYSYDYWGQGTQVTVSS”, the “polyreactivity (PSR sort gate)” value was “low polyreactivity”.
For “QVQLVESGGGLVQAGGSLRLSCAASGLTFAENAMGWYRQAPGKERELVAAISASGGSTYYADSVKGRFTISRDNAKNTVFLQMNSLKPEDTAVYYCATRVAFLWPRRDYDYWGQGTQVTVSS”, the “polyreactivity (PSR sort gate)” value was “low polyreactivity”.
With “QVQLVESGGGLVQAGGSLRLSCAASGLTFAINTMGWYRQAPGKERELVAAITGSGGSTYYADSVKGRFTISRDNAKNTVYLQMNSLKPEDTAVYYCAAELLYVQGYAMDYWGQGTQVTVSS” the “polyreactivity (PSR sort gate)” value was “low polyreactivity”.
In the case of “QVQLVESGGGLVQAGGSLRLSCAASGLTFAQYAMGWYRQAPGKERELVAAITSRGTNTYYADSVKGRFTISRDNAKNTVYLQMNSLKPEDTAVYYCNTYRARLGTTFIDYDYWGQGTQVTVSS”, the “polyreactivity (PSR sort gate)” value is reported as “high polyreactivity”.
For “QVQLVESGGGLVQAGGSLRLSCAASGLTFASNAMGWYRQAPGKERELVAAISWSDGSTYYADSVKGRFTISRDNAKNTVYLQMNSLKPEDTAVYYCAADPPGFRTYRVGYWGQGTQVTVSW”, the “polyreactivity (PSR sort gate)” value was “low polyreactivity”.
With “QVQLVESGGGLVQAGGSLRLSCAASGLTFCRYVMGWYRQAPVKERELVAAITSGDSTNYADSVKGRFTISRDNAKNTVYLQTYSLITEVTAGYYCAADYWYRYYIGRNPWECITFDYWGQGTQVTVSS” the “polyreactivity (PSR sort gate)” value was “low polyreactivity”.
For “QVQLVESGGGLVQAGGSLRLSCAASGLTFDAYAMGWSRPAPGKERELVAAISWSGGSTYYAASVKGRFTISRDNAKNTVYLQMNSLKPEDTAVYYCNARYAQFRYWGQGTQVTVSS”, the “polyreactivity (PSR sort gate)” value was “high polyreactivity”.
For “QVQLVESGGGLVQAGGSLRLSCAASGLTFDGYAKGWYRPAPGKERELVAAISSSSGRTYYADSVKGRFTISRDNAKNTVYLQMNSLKPEDTEVYYCNAVTTGVYKDYYYWGQGTQVTVSS”, the “polyreactivity (PSR sort gate)” value was “high polyreactivity”.
In the case of “QVQLVESGGGLVQAGGSLRLSCAASGLTFDPYAMGWYRQAPGKEREFVATITTSGDSTYYADSVKGRFTISRDNAKNTVYLQMNSLTPEDTAVYYCNTQSRTLGWPLDYWGQGTQVTVSS”, the “polyreactivity (PSR sort gate)” value is reported as “high polyreactivity”.
With “QVQLVESGGGLVQAGGSLRLSCAASGLTFDYYAMGWYRQAPGKERELVAAISIGGSTNYADSVKGRFTISRDNAKNTVYLQMNSLKPEDTAVYYCNAEFAPWGSAYGHDQYDYWGQGTQVTVSS” the “polyreactivity (PSR sort gate)” value was “low polyreactivity”.
In the case of “QVQLVESGGGLVQAGGSLRLSCAASGLTFDYYAMGWYRQAPGKERELVAAISSSGGSTYYADSVKGRFTISRDNAKNTVYLQMNSLKPEDTAVYYCNAGGRRRIFAHSSTGDYWGQGTQVTVSS”, the “polyreactivity (PSR sort gate)” value is reported as “high polyreactivity”.
For “QVQLVESGGGLVQAGGSLRLSCAASGLTFDYYDMGWYRQAPGKERELVASITWRGSSTYYADSVKGRFTISRDNAKNTVYLQMYSLKPEDTAVYYCAADPQSTIRDYWGQGTQVTVSS”, the “polyreactivity (PSR sort gate)” value was “high polyreactivity”.
With “QVQLVESGGGLVQAGGSLRLSCAASGLTFDYYVMGWYRQAPGKERELVATISWSGDITYYADSVKGRFTISRDNAKNTVYLQMNSLKPEDTAVYYCATDKSYSSWSAQYDYWGQGTQVTVSS” the “polyreactivity (PSR sort gate)” value was “low polyreactivity”.
With “QVQLVESGGGLVQAGGSLRLSCAASGLTFEDNDMGWYRQAPGKERELVAAISSAGSTSYADSVKGRFTISRDNAKNTVYLQRNSLKPDDTAVYYCAKDNSPSYTPAQLDGGDDYWGQGTQVTVSS” the “polyreactivity (PSR sort gate)” value was “low polyreactivity”.
With “QVQLVESGGGLVQAGGSLRLSCAASGLTFEHNAMGWYRQAPGKETEFVAVISWRGTSTYYADSVKGRFTISRDNAKNTVYLQMNSLKPEDTAVYYCATRYYGDDGYRYDHWGQGTQVTVSS” the “polyreactivity (PSR sort gate)” value was “high polyreactivity”.
For “QVQLVESGGGLVQAGGSLRLSCAASGLTFEKYAMGWYRQAPGKERELVAAISQDGGSTYYADSVKGRFTISRDNAKNTVYLQMNSLKPEDTAVYYCATGLGYFSRLDYWGQGTQVTVSS”, the “polyreactivity (PSR sort gate)” value was “low polyreactivity”.
In the case of “QVQLVESGGGLVQAGGSLRLSCAASGLTFEWYPMGWSRQAPGKERELVAAITTGGTTNYADSVKGRFTISRDNAKNTVYLQMISLKPEDTAVYYCARLYRSGYEYWGQGTHVTVSS”, the “polyreactivity (PSR sort gate)” value is reported as “low polyreactivity”.
